In patent publication US20090180952A1:

Columns and labels:
[1] = target: recombinant soluble urokinase plasminogen activator receptor (suPAR, aa 1-279) (UniProt Q03405); experiment: direct binding assay (format and antigen form not stated)
[2] = target: recombinant soluble urokinase plasminogen activator receptor (suPAR, aa 1-279) (UniProt Q03405); experiment: ELISA on suPAR, bound Biotin-ATN-658 detected with HRP-streptavidin

## mAb ATN-658 (antibody)
[1]
  Kd: 1 nM
[2]
  EC50 (read off the curve): 0.2 nM
